Fold increase in the PLA signal after carvedilol over unstimulated cells data for one substance are collected here from paper PMC5700200.

This assay concerns the target FLAG-tagged β1 adrenergic receptor (UniProt P34971). In words: proximity ligation; in situ PLA (Duolink) in HEK293 cells stably expressing FLAG-tagged β1AR or β2AR; 10 μM carvedilol, isoproterenol or other βAR ligands for 5 min, with or without 10 μM propranolol for 30 min; fixed, permeabilised; rabbit anti-β1AR (or β2AR) with mouse anti-Gαi.
UniProt P34971, sequence (P34971 whole entry): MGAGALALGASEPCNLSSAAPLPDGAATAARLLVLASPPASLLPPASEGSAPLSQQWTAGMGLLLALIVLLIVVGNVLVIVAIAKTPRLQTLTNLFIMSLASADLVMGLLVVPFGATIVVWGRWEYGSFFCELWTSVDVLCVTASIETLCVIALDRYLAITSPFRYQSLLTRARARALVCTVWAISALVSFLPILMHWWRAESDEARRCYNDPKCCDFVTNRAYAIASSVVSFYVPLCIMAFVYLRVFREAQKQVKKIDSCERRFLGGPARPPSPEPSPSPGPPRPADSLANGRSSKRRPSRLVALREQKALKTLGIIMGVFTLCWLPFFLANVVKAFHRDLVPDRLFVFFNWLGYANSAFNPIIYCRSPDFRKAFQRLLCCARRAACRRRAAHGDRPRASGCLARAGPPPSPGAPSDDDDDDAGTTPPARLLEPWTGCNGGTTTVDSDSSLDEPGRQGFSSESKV

Turning to “Gαi (from UniProt P08754 1-354) (natural protein)”, the fold increase in the PLA signal after carvedilol over unstimulated cells was above 2 fold.
